In article PMC6695400, “Diversity of oligomerization in Drosophila semaphorins suggests a mechanism of functional fine-tuning” (Nature Communications, 2019):

Legend:
[1] = molecular target: the molecule itself; assay: crystal structure; sitting-drop vapour diffusion at 20 °C; data at 100 K
[2] = molecular target: T1, Drosophila melanogaster full-length secreted semaphorin-2a (Sema2a_(full)) (Drosophila melanogaster, UniProt Q24323 26-724); assay: MST; plexin-mVenus kept constant, unlabelled semaphorin titrated (1:1 dilution series); 25 °C; 15 mM HEPES pH 7.4, 150 mM NaCl, 2 mM CaCl2, 0.005% Tween-20; 1 h incubation at room temperature; apparent Kd; details: both partners purified
T1 construct: Semaphorin-2a, Drosophila melanogaster, residues 26D-724V; Disulfide-linked dimer in solution; source: HEK293T (37 °C), transient transfection, purified (HisTrap, SEC)
T1 sequence (looked up): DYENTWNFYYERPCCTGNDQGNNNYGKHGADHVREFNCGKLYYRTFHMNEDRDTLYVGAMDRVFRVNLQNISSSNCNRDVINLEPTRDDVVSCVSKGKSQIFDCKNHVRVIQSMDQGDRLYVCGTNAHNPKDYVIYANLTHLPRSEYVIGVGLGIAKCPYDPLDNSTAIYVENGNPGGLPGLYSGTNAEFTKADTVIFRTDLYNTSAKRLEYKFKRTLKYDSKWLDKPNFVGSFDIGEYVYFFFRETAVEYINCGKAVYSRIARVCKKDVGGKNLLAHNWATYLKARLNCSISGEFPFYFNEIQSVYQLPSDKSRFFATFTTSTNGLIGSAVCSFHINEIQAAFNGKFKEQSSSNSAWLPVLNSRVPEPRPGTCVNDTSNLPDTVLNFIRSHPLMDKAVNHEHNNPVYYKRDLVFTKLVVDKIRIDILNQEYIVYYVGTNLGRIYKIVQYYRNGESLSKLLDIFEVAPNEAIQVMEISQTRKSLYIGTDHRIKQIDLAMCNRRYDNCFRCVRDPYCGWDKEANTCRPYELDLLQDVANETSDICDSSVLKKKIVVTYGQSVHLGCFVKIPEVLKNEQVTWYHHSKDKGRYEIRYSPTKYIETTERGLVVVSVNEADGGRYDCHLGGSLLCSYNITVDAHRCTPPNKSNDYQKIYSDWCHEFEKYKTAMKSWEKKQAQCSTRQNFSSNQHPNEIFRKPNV

[3] = molecular target: T2, mouse Sema3A (residues 26–730, furin sites mutated) with C-terminal 3C-Avi-His6 tag (mouse, UniProt O08665 26-730, R551A (printed: R551, 555A) | R555A (printed: R551, 555A)); assay: pull-down; HEK293T co-transfected with a His6-tagged and a TwinStrep-tagged semaphorin; conditioned medium 5 days post transfection; two-step affinity chromatography (HisTrap, then StrepTactin); western blot and SDS-PAGE of flow-through and eluate; details: partners not purified
T2 construct: Semaphorin-3A, mouse, residues 26-730, furin cleavage sites mutated (R551, 555A); also called Sema3A-His6; source: HEK293T, transient co-transfection, secreted into conditioned medium; not shown: His6, C-terminal, kept
T2 sequence (looked up): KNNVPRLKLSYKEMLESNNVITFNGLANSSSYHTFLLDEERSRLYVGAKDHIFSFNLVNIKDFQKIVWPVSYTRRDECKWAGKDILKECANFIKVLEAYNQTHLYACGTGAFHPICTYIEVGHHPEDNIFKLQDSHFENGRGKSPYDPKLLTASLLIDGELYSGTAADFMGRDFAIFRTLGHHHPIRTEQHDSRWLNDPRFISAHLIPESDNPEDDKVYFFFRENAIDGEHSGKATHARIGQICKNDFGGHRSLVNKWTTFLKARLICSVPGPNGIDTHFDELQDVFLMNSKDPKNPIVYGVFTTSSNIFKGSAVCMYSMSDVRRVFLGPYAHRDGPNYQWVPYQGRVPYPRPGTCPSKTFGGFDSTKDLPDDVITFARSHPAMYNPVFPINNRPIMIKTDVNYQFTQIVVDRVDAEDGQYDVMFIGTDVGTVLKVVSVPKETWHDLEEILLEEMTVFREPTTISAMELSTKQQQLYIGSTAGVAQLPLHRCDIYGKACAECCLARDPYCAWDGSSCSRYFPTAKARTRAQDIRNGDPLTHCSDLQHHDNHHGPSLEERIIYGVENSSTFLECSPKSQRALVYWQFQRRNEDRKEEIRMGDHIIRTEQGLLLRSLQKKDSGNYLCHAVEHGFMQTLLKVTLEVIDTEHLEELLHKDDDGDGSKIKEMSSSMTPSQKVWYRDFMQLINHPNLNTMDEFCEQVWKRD

B1: Drosophila melanogaster Sema2a1–3 (sema, PSI and Ig-like domains) (domain or fragment, UniProt Q24323 27-671, looked up)
chain: YENTWNFYYERPCCTGNDQGNNNYGKHGADHVREFNCGKLYYRTFHMNEDRDTLYVGAMDRVFRVNLQNISSSNCNRDVINLEPTRDDVVSCVSKGKSQIFDCKNHVRVIQSMDQGDRLYVCGTNAHNPKDYVIYANLTHLPRSEYVIGVGLGIAKCPYDPLDNSTAIYVENGNPGGLPGLYSGTNAEFTKADTVIFRTDLYNTSAKRLEYKFKRTLKYDSKWLDKPNFVGSFDIGEYVYFFFRETAVEYINCGKAVYSRIARVCKKDVGGKNLLAHNWATYLKARLNCSISGEFPFYFNEIQSVYQLPSDKSRFFATFTTSTNGLIGSAVCSFHINEIQAAFNGKFKEQSSSNSAWLPVLNSRVPEPRPGTCVNDTSNLPDTVLNFIRSHPLMDKAVNHEHNNPVYYKRDLVFTKLVVDKIRIDILNQEYIVYYVGTNLGRIYKIVQYYRNGESLSKLLDIFEVAPNEAIQVMEISQTRKSLYIGTDHRIKQIDLAMCNRRYDNCFRCVRDPYCGWDKEANTCRPYELDLLQDVANETSDICDSSVLKKKIVVTYGQSVHLGCFVKIPEVLKNEQVTWYHHSKDKGRYEIRYSPTKYIETTERGLVVVSVNEADGGRYDCHLGGSLLCSYNITVDAHRCTPPNK
notes: Semaphorin-2a, Drosophila melanogaster, sema-PSI-Ig, residues 27Y-671K; Disulfide-linked dimer in the crystal; source: HEK293S-GnTI- or HEK293T with kifunensine, transient transfection, purified (HisTrap, SEC)
B1: binds [1].

B2: Drosophila melanogaster PlexB1–4-mVenus (receptor, UniProt Q9V4A7 35-730, looked up)
chain: EELPAQALSPLNDIVAQFNLPSIPVQSTASSYGNRSIGNNIESVRDSQSKNYFTHMSFDFMHNVLFAGATNKILKLNENLRVLAEAVTGPLHDSPQCHAGGCPEDIETSLVNNFNKILVVSYAHDGILIACGSIRQGACEIYSLPRFPATPQFFAVPLAANDENASTYAFVGPARYAWKEEDILYVGTTFTNVGDYRHDVPAISSRRLDDLNYAEFSIQQSIINIDVKYRDHFLVDYIYGFNSSEYAYFIIVQKKSHLADEAGYVTRLARICITDPNYDSYTEITVQCTATENNVDYNIVRDAKVTPASHKLAQKMGIKKDDHVLVTVFSPSREISNQPESKSAMCIYSIKDIEDMFIENIHLCFNGTTKDRNLGYISGTINDGRCPIVGSLGNIYNFCSVGLKISGVSPITAHALFHFDNVSVTSVTATSTTDQQHSLAFLGTNMGVIKKVLLSGQSPGEYEEIVVDAGNRILPNTMMSPKKDFLYVLSQRKITKLRIEHCSVYTNCSACLESRDPFCGWCSLEKRCTVRSTCQRDTSASRWLSLGSGQQCIEFESIIPEKIPISELSHLHLIIRTLPEPFNAKYRCVFGNSTPIDAEILENGLGCATPPLDERPLIPTNTDHILVPLSVRSSETNKDFVSRNFAFFDCSHHGNCQECLQSSWGCNWCIFDNKCVHKSLQCRNIENAVSTVGHCP
notes: Plexin B, Drosophila melanogaster, domains 1-4 of the ectodomain, residues 35E-730P; source: High Five cells (Trichoplusia ni), baculovirus (pBacPAK9, GP64 signal peptide), purified (HisTrap, SEC); not shown: mVenus, C-terminal, kept
With B2 the Kd [2] was 25 nM.

B3: mouse Sema3C (residues 22–711, furin sites mutated) with C-terminal TwinStrep tag (ligand, UniProt Q62181 22-711, looked up)
chain: SSQPQARVYLTFDELRETKTSEYFSLSHQQLDYRILLMDEDQDRIYVGSKDHILSLNINNISQEPLSVFWPASTIKVEECKMAGKDPTHGCGNFVRVIQTFNRTHLYVCGSGAFSPVCTYLNRGRRSEDQVFMIDSKCESGKGRCSFNPNVNTVSVMINEELFSGMYIDFMGTDAAIFRSLTKRNAVRTDQHNSKWLSEPMFVDAHVIPDGTDPNDAKVYFFFKERLTDNNRSTKQIHSMIARICPNDTGGQRSLVNKWTTFLKARLVCSVTDEDGPETHFDELEDVFLLETDNPRTTLVYGIFTTSSSVFKGSAVCVYHLSDIQTVFNGPFAHKEGPNHQLISYQGRIPYPRPGTCPGGAFTPNMRTTKDFPDDVVTFIRNHPLMYNSIYPIHRRPLIVRIGTDYKYTKIAVDRVNAADGRYHVLFLGTDRGTVQKVVVLPTNSSASGELILEELEVFKNHVPITTMKISSKKQQLYVSSNEGVSQVSLHRCHIYGTACADCCLARDPYCAWDGHSCSRFYPTGKARSRAQDVRHGNPLTQCRGFNLKAYRNAAEIVQYGVRNNSTFLECAPKSPQASIKWLLQKDKDRRKEVKLNERIIATSQGLLIRSVQDSDQGLYHCIATENSFKQTIAKINFKVLDSEMVAVVTDKWSPWTWAGSVRALPFHPKDILGAFSHSEMQLINQYCKD
notes: Semaphorin-3C, mouse, residues 22-711, furin cleavage sites mutated (R548, 552A); also called Sema3C-TwinStrep; source: HEK293T, transient co-transfection, secreted into conditioned medium; not shown: TwinStrep, C-terminal, kept
With B3 the “stoichiometry N” value [3] was 1.
